Measurements as given in publication PMC7003530 (Biochemistry, 2019).

Target: Factor-inhibiting HIF-1 (human, UniProt Q9NWT6 1-349)
Experiment: other fluorescence titration

H-DESGLPQLTSYDAEVNAPIQGSRNLLQGEELLRALDQVN-OH [39-residue CTAD peptide substrate, human HIF-1α 788–826 with C800A] gave a Kd of 92 ± 9 µM.
